Patent US20150344570A1 (published 2015)

T1: FcγRIIb (human, UniProt P31994 43-217)
T1 construct: extracellular domain; also called 2b; FcgRIIb
T1 sequence (looked up): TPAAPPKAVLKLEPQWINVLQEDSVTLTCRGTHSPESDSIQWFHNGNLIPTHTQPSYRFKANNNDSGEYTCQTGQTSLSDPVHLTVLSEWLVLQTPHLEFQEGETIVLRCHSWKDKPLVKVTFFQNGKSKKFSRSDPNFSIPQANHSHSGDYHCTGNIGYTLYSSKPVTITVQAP

T2: FcγRIIa H (human, UniProt P12318 34-217)
T2 construct: extracellular domain; also called FcγRIIa type H; 2aH
T2 sequence (looked up): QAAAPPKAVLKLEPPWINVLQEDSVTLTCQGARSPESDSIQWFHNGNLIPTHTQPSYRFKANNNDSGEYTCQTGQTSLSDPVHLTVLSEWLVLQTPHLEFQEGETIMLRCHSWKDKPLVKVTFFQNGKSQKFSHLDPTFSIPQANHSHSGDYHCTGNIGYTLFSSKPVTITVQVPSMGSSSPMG

T3: FcγRIIa R (human, UniProt P12318 34-217)
T3 construct: extracellular domain; also called FcgRIIa R type; 2aR; not shown: His tag at the C terminus
T3 sequence (looked up): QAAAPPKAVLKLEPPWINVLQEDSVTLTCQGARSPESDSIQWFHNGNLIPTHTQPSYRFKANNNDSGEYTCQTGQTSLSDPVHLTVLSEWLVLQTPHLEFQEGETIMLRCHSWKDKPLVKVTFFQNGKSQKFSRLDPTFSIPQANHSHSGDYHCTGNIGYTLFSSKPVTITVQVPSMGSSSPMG

T4: FcγRIIb (human, UniProt P31994 43-217)
T4 construct: extracellular domain; also called FcgRIIb; 2b; not shown: His tag at the C terminus
T4 sequence (looked up): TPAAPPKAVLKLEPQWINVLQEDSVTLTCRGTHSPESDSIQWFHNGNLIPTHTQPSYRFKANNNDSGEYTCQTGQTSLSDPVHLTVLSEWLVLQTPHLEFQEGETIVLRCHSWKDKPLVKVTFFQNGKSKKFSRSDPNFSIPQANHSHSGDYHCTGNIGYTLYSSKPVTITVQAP


What was measured:
FcγRIIb [1] = target: T1, FcγRIIb; assay: SPR (Biacore), captured antibody, FcγR as analyte; GpH7-A5/GpH7-B3/GpL16-k0 = 100
Experimental: (§1) The heterodimerized antibodies He Abs in which one of the H chains was introduced with an alteration were assayed for their binding activities to each activating FcγR and inhibitory FcγR according to the method described in Example 4. […] The activating FcγRs in FIGS. 26, 27, 28, and 29 are FcγRIa, FcγRIIa (R), FcγRIIa (H), and FcγRIIIa, respectively.
(§2) Analysis of interaction between objective antibody and the FcγR was carried out using Biacore T100 (GE Healthcare). HBS-EP+ (GE Healthcare) was used as the running buffer, and the measurement temperature was set to 25° C. Chips produced by immobilizing the antigen peptide by the amine coupling method to a Series S Sencor Chip CM5 (GE Healthcare), or alternatively, chips produced by allowing preliminarily biotinylated antigen peptides to interact with and immobilize onto a Series S Sensor Chip SA (certified) (GE Healthcare) were used. Antibodies of interest were captured onto an antigen peptide-immobilized chip, and allowed to interact to each FcγR diluted with running buffer. To regenerate and repeatedly use the chip, the antibodies captured on the chip were washed off by reacting 10 mM glycine-HCl, pH 1.5.

FcγRIIa H [2] = target: T2, FcγRIIa H; assay: as above
Experimental: as §1, §2

FcγRIIa H [3] = target: T2, FcγRIIa H; assay: ratio of He/Con_2aH to He/Con_2b (FcγRIIb); SPR
FcγRIIa R [4] = target: T3, FcγRIIa R; assay: SPR; He/Con_2aR divided by He/Con_2b (FcγRIIa R over FcγRIIb)
FcγRIIb [5] = target: T4, FcγRIIb; assay: SPR, relative to GpH7-A5/GpH7-B3/GpL16-k0
FcγRIIa R [6] = target: T3, FcγRIIa R; assay: SPR, relative to GpH7-A5/GpH7-B3/GpL16-k0
[7] = target: T5, FcγRIIIa extracellular domain with C-terminal His tag (human, UniProt P08637 17-208); assay: SPR (Biacore), antibody captured on antigen peptide chip, FcγR as analyte; GpH7-A5/GpH7-B3/GpL16-k0 = 100
T5 construct: extracellular domain; also called FcgRIIIa; 3a
Experimental: as §1, §2
T5 sequence (P08637 17-208): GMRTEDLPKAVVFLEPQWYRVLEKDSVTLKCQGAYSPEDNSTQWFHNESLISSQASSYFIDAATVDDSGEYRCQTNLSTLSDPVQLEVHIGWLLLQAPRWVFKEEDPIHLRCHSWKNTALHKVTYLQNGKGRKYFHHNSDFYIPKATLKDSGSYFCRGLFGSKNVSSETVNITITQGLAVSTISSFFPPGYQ

[8] = target: T5, FcγRIIIa extracellular domain with …; assay: SPR (Biacore); He/Con_3a divided by He/Con_2b (FcγRIIIa against FcγRIIb)
Experimental: as §1, §2

[9] = target: T6, FcγRIIIa extracellular domain with C-terminal His tag (human, UniProt P08637 17-208); assay: SPR (Biacore), FcγR as analyte over captured antibody; GpH7-A5/GpH7-B3/GpL16-k0 = 100
T6 construct: extracellular domain; also called FcgRIIIa; 3a; not shown: His tag at the C terminus
Experimental: as §1, §2
T6 sequence (P08637 17-208): as above

[10] = target: T6, FcγRIIIa extracellular domain with …; assay: SPR (Biacore); He/Con_3a divided by He/Con_2b (FcγRIIb)

He_2aR/2b (FcγRIIa R [4]) [ratio]	He/Con_2b (FcγRIIb [5]) [control = 100]	He/Con_2aR (FcγRIIa R [6]) [control = 100]	He/Con_3a (relative binding activity) [7]	He_3a/2b (IIIa/IIb) [8] [ratio]	Binder	further results
–	–	–	–	–	GpH7-A5/GpH7-B3 variant Y300_11K/GpL16-k0 (antibody, human IgG1, kappa, Heterodimerized anti-glypican-3 IgG1 (He Ab); mutation in the B3 H chain only; also called He Ab) heavy 1: not shown heavy 2: not shown light: DIVMTQSPLSLPVTPGEPASISCQASESLVHSNRNTYLHWYLQKPGQSPQLLIYKVSNRFSGVPDRFSGSGSGTDFTLKISRVEAEDVGVYYCSQNTHVPPTFGQGTKVEIERTVAAPSVFIFPPSDEQLKSGTASVVCLLNNFYPREAKVQWKVDNALQSGNSQESVTEQDSKDSTYSLSSTLTLSKADYEKHKVYACEVTHQGLSSPVTKSFNRGEC	He/Con_2b (relative binding) (FcγRIIb [1]): 51.6%; He/Con_2aH (relative binding) (FcγRIIa H [2]): 66.9%; He_2aH/2b (IIaH/IIb ratio) (FcγRIIa H [3]): 1.3
0.66	109	72.1	–	–	GpH7-A5/GpH7-B3 variant S267_08L/GpL16-k0 (antibody, human IgG1, kappa, Heterodimerized anti-glypican-3 IgG1; mutation in the GpH7-B3 chain only; also called He Ab) heavy 1: not shown heavy 2: not shown light: DIVMTQSPLSLPVTPGEPASISCQASESLVHSNRNTYLHWYLQKPGQSPQLLIYKVSNRFSGVPDRFSGSGSGTDFTLKISRVEAEDVGVYYCSQNTHVPPTFGQGTKVEIERTVAAPSVFIFPPSDEQLKSGTASVVCLLNNFYPREAKVQWKVDNALQSGNSQESVTEQDSKDSTYSLSSTLTLSKADYEKHKVYACEVTHQGLSSPVTKSFNRGEC	–
–	–	–	19.3 % of control	2.15	GpH7-A5/GpH7-B3 variant A327_12R/GpL16-k0 (antibody, human IgG1, kappa, Heterodimerized anti-glypican-3 IgG1; mutation in the GpH7-B3 chain only; also called He Ab) heavy 1: not shown heavy 2: not shown light: DIVMTQSPLSLPVTPGEPASISCQASESLVHSNRNTYLHWYLQKPGQSPQLLIYKVSNRFSGVPDRFSGSGSGTDFTLKISRVEAEDVGVYYCSQNTHVPPTFGQGTKVEIERTVAAPSVFIFPPSDEQLKSGTASVVCLLNNFYPREAKVQWKVDNALQSGNSQESVTEQDSKDSTYSLSSTLTLSKADYEKHKVYACEVTHQGLSSPVTKSFNRGEC	–
0.79	113	88.9	–	–	GpH7-A5/GpH7-B3 variant A327_18N/GpL16-k0 (antibody, human IgG1, kappa, Heterodimerized anti-glypican-3 IgG1; mutation in the GpH7-B3 chain only; also called He Ab) heavy 1: not shown heavy 2: not shown light: DIVMTQSPLSLPVTPGEPASISCQASESLVHSNRNTYLHWYLQKPGQSPQLLIYKVSNRFSGVPDRFSGSGSGTDFTLKISRVEAEDVGVYYCSQNTHVPPTFGQGTKVEIERTVAAPSVFIFPPSDEQLKSGTASVVCLLNNFYPREAKVQWKVDNALQSGNSQESVTEQDSKDSTYSLSSTLTLSKADYEKHKVYACEVTHQGLSSPVTKSFNRGEC	–
–	–	–	–	–	GpH7-A5/GpH7-B3 variant Y300_05P/GpL16-k0 (antibody, human IgG1, kappa, Heterodimerized IgG1 antibody; alteration in the GpH7-B3 chain only; also called He Ab) heavy 1: not shown heavy 2: not shown light: DIVMTQSPLSLPVTPGEPASISCQASESLVHSNRNTYLHWYLQKPGQSPQLLIYKVSNRFSGVPDRFSGSGSGTDFTLKISRVEAEDVGVYYCSQNTHVPPTFGQGTKVEIERTVAAPSVFIFPPSDEQLKSGTASVVCLLNNFYPREAKVQWKVDNALQSGNSQESVTEQDSKDSTYSLSSTLTLSKADYEKHKVYACEVTHQGLSSPVTKSFNRGEC	He/Con_3a [9]: 2.8 % of control; He_3a/2b (IIIa/IIb) [10]: 0.38 ratio
–	–	–	33.5 % of control	4.46	GpH7-A5/GpH7-B3 variant L328_11K/GpL16-k0 (antibody, human IgG1, kappa, Heterodimerized anti-glypican-3 IgG1; mutation in the GpH7-B3 chain only; also called He Ab) heavy 1: not shown heavy 2: not shown light: DIVMTQSPLSLPVTPGEPASISCQASESLVHSNRNTYLHWYLQKPGQSPQLLIYKVSNRFSGVPDRFSGSGSGTDFTLKISRVEAEDVGVYYCSQNTHVPPTFGQGTKVEIERTVAAPSVFIFPPSDEQLKSGTASVVCLLNNFYPREAKVQWKVDNALQSGNSQESVTEQDSKDSTYSLSSTLTLSKADYEKHKVYACEVTHQGLSSPVTKSFNRGEC	–
